What was measured:
Human CD32a [1] = target: T1, Human CD32a (human, UniProt P12318 36-218, limits assumed); test: SPR (Biacore T100), bispecific immobilised on CM5 chip, soluble FcR 60-5000 nM, Steady State Affinity model
T1 construct: also called FcγRIIA
T1 sequence (looked up): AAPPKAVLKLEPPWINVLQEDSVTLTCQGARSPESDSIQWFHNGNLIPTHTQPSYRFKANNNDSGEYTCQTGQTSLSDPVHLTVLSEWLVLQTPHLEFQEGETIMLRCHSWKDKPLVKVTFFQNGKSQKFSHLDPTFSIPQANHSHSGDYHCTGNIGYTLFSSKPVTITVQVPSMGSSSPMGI
Experimental: (§1) SPR measurements were performed on a Biacore T100 apparatus (Biacore GE Healthcare) at 25° C. In all Biacore experiments HBS-EP+ (Biacore GE Healthcare) and 10 mM NaOH, 500 mM NaCl served as running buffer and regeneration buffer respectively. Sensorgrams were analyzed with Biacore T100 Evaluation software. Recombinant human FcR's (CD64, CD32a, CD32b, CD16a and CD16b) were cloned, produced and purified.
(§2) The chip surface was activated with EDC/NHS (N-ethyl-N′-(3-dimethylaminopropyl) carbodiimidehydrochloride and N-hydroxysuccinimide (Biacore GE Healthcare)). Bispecific antibodies were diluted to 10 pg/ml in coupling buffer (10 mM acetate, pH 5.6) and injected until the appropriate immobilization level was reached (i.e. 800 to 900 RU). Deactivation of the remaining activated groups was performed using 100 mM ethanolamine pH 8 (Biacore GE Healthcare).
(§3) Monovalent affinity study was assessed following a classical kinetic wizard (as recommended by the manufacturer). Serial dilutions of soluble analytes (FcRs) ranging from 0.7 to 60 nM for CD64 and from 60 to 5000 nM for all the other FcRs were injected over the immobilized bispecific antibodies and allowed to dissociate for 10 min before regeneration. The entire sensorgram sets were fitted using the 1:1 kinetic binding model for CD64 and with the Steady State Affinity model for all the other FcRs.

Human CD16a [2] = target: T2, Human CD16a (human, UniProt P08637 17-208); test: as above
T2 construct: also called FcγRIIIa
Experimental: as §1, §2, §3

Human CD32b [3] = target: T3, Human CD32b (human, UniProt P31994 46-217, limits assumed); test: as above
T3 construct: also called FcγRIIB
T3 sequence (looked up): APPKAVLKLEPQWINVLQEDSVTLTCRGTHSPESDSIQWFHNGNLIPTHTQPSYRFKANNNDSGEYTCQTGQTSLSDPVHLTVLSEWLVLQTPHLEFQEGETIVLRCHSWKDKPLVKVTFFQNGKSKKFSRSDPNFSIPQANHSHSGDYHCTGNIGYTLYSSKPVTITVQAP
Experimental: as §1, §2, §3

Human CD16b [4] = target: T4, Human CD16b (human, UniProt O75015 17-200); test: as above
T4 construct: also called FcγRIIIb
Experimental: as §1, §2, §3

Human CD64 [5] = target: T5, Human CD64 (human, UniProt P12314 16-288, limits assumed); test: SPR (Biacore T100), bispecific immobilised on CM5 chip, soluble CD64 0.7-60 nM, 1:1 kinetic model
T5 construct: also called FcγRI
Experimental: as §1, §2, §3

Human CD32a [6] = target: T1, Human CD32a; test: SPR (Biacore T100), bispecific immobilised on CM5 chip, soluble FcR
Experimental: as §1, §2, §3

Human CD16a [7] = target: T2, Human CD16a; test: as above
Experimental: as §1, §2, §3

Human CD32b [8] = target: T3, Human CD32b; test: as above
Experimental: as §1, §2, §3

Human CD64 [9] = target: T5, Human CD64; test: as above
Experimental: as §1, §2, §3

Human CD16b [10] = target: T4, Human CD16b; test: as above
Experimental: as §1, §2, §3

[11] = target: T6, Human NKp46 recombinant protein (human, UniProt O76036 22-258); test: SPR (Biacore T100), bispecific captured on Protein-A chip, soluble recombinant human NKp46
T6 construct: also called recombinant human NKp46 proteins
Experimental: SPR measurements were performed on a Biacore T100 apparatus (Biacore GE Healthcare) at 25° C. In all Biacore experiments HBS-EP+ (Biacore GE Healthcare) and NaOH 10 mM served as running buffer and regeneration buffer respectively. Sensorgrams were analyzed with Biacore T100 Evaluation software. Protein-A was purchased from (GE Healthcare). Human NKp46 recombinant proteins were cloned, produced and purified at Innate Pharma.
as §2, with “Protein-A was” for “Bispecific antibodies were”, “μg/ml” for “pg/ml”, “2000” for “800 to 900”
Seven serial dilutions of human NKp46 recombinant proteins, ranging from 6.25 to 400 nM were sequentially injected over the captured Bi-Specific antibodies and allowed to dissociate for 10 min before regeneration. The entire sensorgram sets were fitted using the 1:1 kinetic binding model.

T4 sequence (O75015 17-200 limits assumed): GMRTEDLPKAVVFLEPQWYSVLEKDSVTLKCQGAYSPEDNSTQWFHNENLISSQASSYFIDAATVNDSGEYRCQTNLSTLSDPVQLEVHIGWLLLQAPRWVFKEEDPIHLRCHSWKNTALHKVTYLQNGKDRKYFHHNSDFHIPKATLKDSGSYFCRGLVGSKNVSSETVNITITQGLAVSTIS
T2 sequence (P08637 17-208 limits assumed): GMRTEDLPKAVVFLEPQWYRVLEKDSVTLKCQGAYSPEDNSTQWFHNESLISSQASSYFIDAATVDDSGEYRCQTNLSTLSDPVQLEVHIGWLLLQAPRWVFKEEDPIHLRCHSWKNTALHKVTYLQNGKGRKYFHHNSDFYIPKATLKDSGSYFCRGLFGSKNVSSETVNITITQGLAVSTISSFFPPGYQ
T5 sequence (P12314 16-288 limits assumed): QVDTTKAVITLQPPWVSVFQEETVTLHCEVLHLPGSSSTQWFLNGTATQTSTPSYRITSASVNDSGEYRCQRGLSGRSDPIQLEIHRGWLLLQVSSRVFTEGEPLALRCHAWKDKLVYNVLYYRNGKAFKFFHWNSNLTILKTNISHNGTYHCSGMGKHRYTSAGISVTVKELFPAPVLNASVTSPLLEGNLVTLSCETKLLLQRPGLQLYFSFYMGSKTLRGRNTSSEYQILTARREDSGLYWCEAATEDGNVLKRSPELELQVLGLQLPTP
T6 sequence (O76036 22-258 Q82K limits assumed): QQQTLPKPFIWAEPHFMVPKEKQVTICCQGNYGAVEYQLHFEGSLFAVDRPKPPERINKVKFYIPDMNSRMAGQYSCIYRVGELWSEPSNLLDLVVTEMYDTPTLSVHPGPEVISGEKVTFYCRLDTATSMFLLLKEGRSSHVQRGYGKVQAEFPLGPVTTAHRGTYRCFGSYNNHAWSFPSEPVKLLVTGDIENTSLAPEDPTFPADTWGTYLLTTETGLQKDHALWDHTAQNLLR

B1: CD19-F5-NKp46-3 (bispecific antibody, human IgG1, kappa)
chain 1: not shown
chain 2: not shown
chain 3: DIVMTQSPATLSVTPGDRVSLSCRASQSISDYLHWYQQKSHESPRLLIKYASQSISGIPSRFSGSGSGSDFTLSINSVEPEDVGVYYCQNGHSFPLTFGAGTKLELKASTKGPSVFPLAPSSKSTSGGTAALGCLVKDYFPEPVTVSWNSGALTSGVHTFPAVLQSSGLYSLSSVVTVPSSSLGTQTYICNVNHKPSNTKVDKRVEPKSCDKTH
Kd (Human CD32a [1]): 846 nM | Kd (Human CD16a [2]): 1100 nM | Kd (Human CD32b [3]): 1850 nM | Kd (Human CD16b [4]): 2430 nM | Kd (Human CD64 [5]): 0.7 nM

B2: CD19-F6-NKp46-3 (bispecific antibody, human IgG1, kappa)
chain 1: not shown
chain 2: not shown
chain 3: DIVMTQSPATLSVTPGDRVSLSCRASQSISDYLHWYQQKSHESPRLLIKYASQSISGIPSRFSGSGSGSDFTLSINSVEPEDVGVYYCQNGHSFPLTFGAGTKLELKASTKGPSVFPLAPSSKSTSGGTAALGCLVKDYFPEPVTVSWNSGALTSGVHTFPAVLQSSGLYSLSSVVTVPSSSLGTQTYICNVNHKPSNTKVDKRVEPKSCDKTH
binding result (Human CD32a [6]): no binding (tested: 60 to 5000 nM) | binding result (Human CD16a [7]): no binding (tested: 60 to 5000 nM) | binding result (Human CD32b [8]): no binding (tested: 60 to 5000 nM) | binding result (Human CD64 [9]): no binding (tested: 0.7 to 60 nM) | binding result (Human CD16b [10]): no binding (tested: 60 to 5000 nM)

B3: CD19-F1-NKp46-6 (bispecific antibody)
chain: DIQLTQSPASLAVSLGQRATISCKASQSVDYDGDSYLNWYQQIPGQPPKLLIYDASNLVSGIPPRFSGSGSGTDFTLNIHPVEKVDAATYHCQQSTEDPWTFGGGTKLEIKGGGGSGGGGSGGGGSQVQLQQSGAELVRPGSSVKISCKASGYAFSSYWMNWVKQRPGQGLEWIGQIWPGDGDTNYNGKFKGKATLTADESSSTAYMQLSSLASEDSAVYFCARRETTTVGRYYYAMDYWGQGTTVTVSSGGGSSAPELLGGPSVFLFPPKPKDTLMISRTPEVTCVVVDVSHEDPEVKFNWYVDGVEVHNAKTKPREEQYNSTYRVVSVLTVLHQDWLNGKEYKCKVSNKALPAPIEKTISKAKGQPREPQVYTKPPSREEMTKNQVSLSCLVKGFYPSDIAVEWESNGQPENNYKTTVPVLDSDGSFRLASYLTVDKSRWQQGNVFSCSVMHEALHNHYTQKSLSLSPGSTGSQVQLQQPGSVLVRPGASVKLSCKASGYTFTSSWMHWAKQRPGQGLEWIGHIHPNSGISNYNEKFKGKATLTVDTSSSTAYVDLSSLTSEDSAVYYCARGGRFDDWGAGTTVTVSSVEGGSGGSGGSGGSGGVDDIVMTQSPATLSVTPGDRVSLSCRASQSISDYLHWYQQKSHESPRLLIKYASQSISGIPSRFSGSGSGSDFTLSINSVEPEDVGVYYCQNGHSFLMYTFGGGTKLEIK
notes: Single chain F1 format, complete mature protein
binding result [11]: no binding

From patent publication US20160369002A1 (INNATE PHARMA, published 2016)
